Data set [1] concerns MCF7. The data set is described as follows: percentage of EdU-negative (G0-arrested) nuclei per well, 72 h; higher = more G0 arrest. The following applies: reference: sequence is the full UniProt precursor, the tested protein was the secreted form or ectodomain.
In data set [2] the test system is hTERT-HMEC. Described as above. The following applies: reference: sequence is the full UniProt precursor, the tested protein was the secreted form or ectodomain.
The mark [3] stands for this setting: protein concentration 0.01025 µM.
[4] abbreviates: protein concentration 0.1025 µM.
[5] abbreviates: protein concentration 0.02025 µM.
[6] abbreviates: protein concentration 0.2025 µM.
The mark [7] stands for this setting: protein concentration 0.0225 µM.
Setting [8] is: protein concentration 0.00575 µM.
Setting [9] is: protein concentration 0.0575 µM.
Where [10] appears, read: protein concentration 0.0085 µM.
Where [11] appears, read: protein concentration 0.007735 µM.
[12] abbreviates: protein concentration 0.07735 µM.

± gives the standard deviation of the averaged measurements.
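Further: secreted proteins added to cultured cells, EdU pulse at the end, nuclei found by Hoechst imaging, EdU status from nuclear versus surrounding ring intensity ratio, PBS as neutral control.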

Regarding “MVRARHQPGGLCLLLLLLCQFMEDRSAQAGNCWLRQAKNGRCQVLYKTELSKEECCSTGRLSTSWTEEDVNDNTLFKWMIFNGGAPNCIPCKETCENVDCGPGKKCRMNKKNKPRCVCAPDCSNITWKGPVCGLDGKTYRNECALLKARCKEQPELEVQYQGRCKKTCRDVFCPGSSTCVVDQTNNAYCVTCNRICPEPASSEQYLCGNDGVTYSSACHLRKATCLLGRSIGLAYEGKCIKAKSCEDIQCTGGKKCLWDFKVGRGRCSLCDELCPDSKSDEPVCASDNATYASECAMKEAACSSGVLLEVKHSGSCNSISEDTEEEEEDEDQDYSFPISSILEW”, the “percentage of EdU-negative” value in data set [1] (setting [3]) came to 25.7 ± 1.4%; in data set [1] (setting [4]) it was 26.2 ± 0.46%; in data set [2] (setting [3]) it was 5.35 ± 0.64%; in data set [2] (setting [4]) it was 6.11 ± 0.15%.

Consider “MVRLAAELLLLLGLLLLTLHITVLRGSGAADGPDAAAGNASQAQLQNNLNVGSDTTSETSFSLSKEAPREHLDHQAAHQPFPRPRFRQETGHPSLQRDFPRSFLLDLPNFPDLSKADINGQNPNIQVTIEVVDGPDSEADKDQHPENKPSWSVPSPDWRAWWQRSLSLARANSGDQDYKYDSTSDDSNFLNPPRGWDHTAPGHRTFETKDQPEYDSTDGEGDWSLWSVCSVTCGNGNQKRTRSCGYACTATESRTCDRPNCPGIEDTFRTAATEVSLLAGSEEFNATKLFEVDTDSCERWMSCKSEFLKKYMHKVMNDLPSCPCSYPTEVAYSTADIFDRIKRKDFRWKDASGPKEKLEIYKPTARYCIRSMLSLESTTLAAQHCCYGDNMQLITRGKGAGTPNLISTEFSAELHYKVDVLPWIICKGDWSRYNEARPPNNGQKCTESPSDEDYIKQFQEAREY [B1AKI9]”, for which the “percentage of EdU-negative” value is 25.3 ± 2.1% in data set [1] (setting [5]), 24.1 ± 0.87% in data set [1] (setting [6]), 4.82 ± 0.37% in data set [2] (setting [5]) and 5.13 ± 0.59% in data set [2] (setting [6]).

On to “MVRMVPVLLSLLLLLGPAVPQENQDGRYSLTYIYTGLSKHVEDVPAFQALGSLNDLQFFRYNSKDRKSQPMGLWRQVEGMEDWKQDSQLQKAREDIFMETLKDIVEYYNDSNGSHVLQGRFGCEIENNRSSGAFWKYYYDGKDYIEFNKEIPAWVPFDPAAQITKQKWEAEPVYVQRAKAYLEEECPATLRKYLKYSKNILDRQDPPSVVVTSHQAPGEKKKLKCLAYDFYPGKIDVHWTRAGEVQEPELRGDVLHNGNGTYQSWVVVAVPPQDTAPYSCHVQHSSLAQPLVVPWEAS”, for which the “percentage of EdU-negative” value in data set [1] (setting [7]) was 26.1 ± 2%; in data set [1] (protein concentration 0.225 µM), 26.1 ± 1.9%; in data set [2] (setting [7]), 5.49 ± 0.45%; in data set [2] (protein concentration 0.225 µM), 5.19 ± 0.89%.

On to “MVRPMLLLSLGLLAGLLPALAACPQNCHCHSDLQHVICDKVGLQKIPKVSEKTKLLNLQRNNFPVLAANSFRAMPNLVSLHLQHCQIREVAAGAFRGLKQLIYLYLSHNDIRVLRAGAFDDLTELTYLYLDHNKVTELPRGLLSPLVNLFILQLNNNKIRELRAGAFQGAKDLRWLYLSENALSSLQPGALDDVENLAKFHVDRNQLSSYPSAALSKLRVVEELKLSHNPLKSIPDNAFQSFGRYLETLWLDNTNLEKFSDGAFLGVTTLKHVHLENNRLNQLPSNFPFDSLETLALTNNPWKCTCQLRGLRRWLEAKASRPDATCASPAKFKGQHIRDTDAFRSCKFPTKRSKKAGRH”, for which the “percentage of EdU-negative” value in data set [1] (setting [8]) is 26.1 ± 0.54%; in data set [1] (setting [9]) it was 29 ± 0.99%; in data set [2] (setting [8]), 5.33 ± 0.1%; in data set [2] (setting [9]) it was 7.33 ± 0.97%.

For “MVSALRGAPLIRVHSSPVSSPSVSGPRRLVSCLSSQSSALSQSGGGSTSAAGIEARSRALRRRWCPAGIMLLALVCLLSCLLPSSEAKLYGRCELARVLHDFGLDGYRGYSLADWVCLAYFTSGFNAAALDYEADGSTNNGIFQINSRRWCSNLTPNVPNVCRMYCSDLLNPNLKDTVICAMKITQEPQGLGYWEAWRHHCQGKDLTEWVDGCDF [Q8IXA5]”, the “percentage of EdU-negative” value in data set [1] (setting [7]) worked out at 23.7 ± 1.4%; in data set [1] (protein concentration 0.225 µM) it was 23.6 ± 2.9%; in data set [2] (setting [7]), 4.64 ± 0.051%; in data set [2] (protein concentration 0.225 µM) it was 10 ± 1.4%.

“MVSQALRLLCLLLGLQGCLAAGGVAKASGGETRDMPWKPGPHRVFVTQEEAHGVLHRRRRANAFLEELRPGSLERECKEEQCSFEEAREIFKDAERTKLFWISYSDGDQCASSPCQNGGSCKDQLQSYICFCLPAFEGRNCETHKDDQLICVNENGGCEQYCSDHTGTKRSCRCHEGYSLLADGVSCTPTVEYPCGKIPILEKRNASKPQGRIVGGKVCPKGECPWQVLLLVNGAQLCGGTLINTIWVVSAAHCFDKIKNWRNLIAVLGEHDLSEHDGDEQSRRVAQVIIPSTYVPGTTNHDIALLRLHQPVVLTDHVVPLCLPERTFSERTLAFVRFSLVSGWGQLLDRGATALELMVLNVPRLMTQDCLQQSRKVGDSPNITEYMFCAGYSDGSKDSCKGDSGGPHATHYRGTWYLTGIVSWGQGCATVGHFGVYTRVSQYIEWLQKLMRSEPRPGVLLRAPFP”: the “percentage of EdU-negative” value in data set [1] (setting [10]) came to 24.3 ± 4.2%; in data set [1] (protein concentration 0.085 µM), 24.2 ± 0.32%; in data set [2] (setting [10]), 4.77 ± 0.36%; in data set [2] (protein concentration 0.085 µM), 5.93 ± 1.7%.

Turning to “MVSRMVSTMLSGLLFWLASGWTPAFAYSPRTPDRVSEADIQRLLHGVMEQLGIARPRVEYPAHQAMNLVGPQSIEGGAHEGLQHLGPFGNIPNIVAELTGDNIPKDFSEDQGYPDPPNPCPVGKTADDGCLENTPDTAEFSREFQLHQHLFDPEHDYPGLGKWNKKLLYEKMKGGERRKRRSVNPYLQGQRLDNVVAKKSVPHFSDEDKDPE”, the “percentage of EdU-negative” value in data set [1] (setting [7]) turned out to be 26.6 ± 1.8%; in data set [1] (protein concentration 0.225 µM), 25.7 ± 2.2%; in data set [2] (setting [7]) it was 5.414 ± 0.019%; in data set [2] (protein concentration 0.225 µM) it was 5.28 ± 0.35%.

Regarding “MVSYWDTGVLLCALLSCLLLTGSSSGSKLKDPELSLKGTQHIMQAGQTLHLQCRGEAAHKWSLPEMVSKESERLSITKSACGRNGKQFCSTLTLNTAQANHTGFYSCKYLAVPTSKKKETESAIYIFISDTGRPFVEMYSEIPEIIHMTEGRELVIPCRVTSPNITVTLKKFPLDTLIPDGKRIIWDSRKGFIISNATYKEIGLLTCEATVNGHLYKTNYLTHRQTNTIIDVQISTPRPVKLLRGHTLVLNCTATTPLNTRVQMTWSYPDEKNKRASVRRRIDQSNSHANIFYSVLTIDKMQNKDKGLYTCRVRSGPSFKSVNTSVHIYDKAFITVKHRKQQVLETVAGKRSYRLSMKVKAFPSPEVVWLKDGLPATEKSARYLTRGYSLIIKDVTEEDAGNYTILLSIKQSNVFKNLTATLIVNVKPQIYEKAVSSFPDPALYPLGSRQILTCTAYGIPQPTIKWFWHPCNHNHSEARCDFCSNNEESFILDADSNMGNRIESITQRMAIIEGKNKMASTLVVADSRISGIYICIASNKVGTVGRNISFYITDVPNGFHVNLEKMPTEGEDLKLSCTVNKFLYRDVTWILLRTVNNRTMHYSISKQKMAITKEHSITLNLTIMNVSLQDSGTYACRARNVYTGEEILQKKEITIRDQEAPYLLRNLSDHTVAISSSTTLDCHANGVPEPQITWFKNNHKIQQEPGIILGPGSSTLFIERVTEEDEGVYHCKATNQKGSVESSAYLTVQGTSDKSNLELITLTCTCVAATLFWLLLTLFIRKMKRSSSEIKTDYLSIIMDPDEVPLDEQCERLPYDASKWEFARERLKLGKSLGRGAFGKVVQASAFGIKKSPTCRTVAVKMLKEGATASEYKALMTELKILTHIGHHLNVVNLLGACTKQGGPLMVIVEYCKYGNLSNYLKSKRDLFFLNKDAALHMEPKKEKMEPGLEQGKKPRLDSVTSSESFASSGFQEDKSLSDVEEEEDSDGFYKEPITMEDLISYSFQVARGMEFLSSRKCIHRDLAARNILLSENNVVKICDFGLARDIYKNPDYVRKGDTRLPLKWMAPESIFDKIYSTKSDVWSYGVLLWEIFSLGGSPYPGVQMDEDFCSRLREGMRMRAPEYSTPEIYQIMLDCWHRDPKERPRFAELVEKLGDLLQANVQQDGKDYIPINAILTGNSGFTYSTPAFSEDFFKESISAPKFNSGSSDDVRYVNAFKFMSLERIKTFEELLPNATSMFDDYQGDSSTLLASPMLKRFTWTDSKPKASLKIDLRVTSKSKESGLSDVSRPSFCHSSCGHVSEGKRRFTYDHAELERKIACCSPPPDYNSVVLYSTPPI”, the “percentage of EdU-negative” value was 26.6 ± 3% in data set [1] (setting [11]), 28.1 ± 1.6% in data set [1] (setting [12]), 4.97 ± 0.54% in data set [2] (setting [11]) and 5.7 ± 0.039% in data set [2] (setting [12]).

“MVTLRKRTLKVLTFLVLFIFLTSFFLNYSHTMVATTWFPKQMVLELSENLKRLIKHRPCTCTHCIGQRKLSAWFDERFNQTMQPLLTAQNALLEDDTYRWWLRLQREKKPNNLNDTIKELFRVVPGNVDPMLEKRSVGCRRCAVVGNSGNLRESSYGPEIDSHDFVLRMNKAPTAGFEADVGTKTTHHLVYPESFRELGDNVSMILVPFKTIDLEWVVSAITTGTISHTYIPVPAKIRVKQDKILIYHPAFIKYVFDNWLQGHGRYPSTGILSVIFSMHVCDEVDLYGFGADSKGNWHHYWENNPSAGAFRKTGVHDADFESNVTATLASINKIRIFKGR”: the “percentage of EdU-negative” value in data set [1] (setting [7]) came out at 24.2 ± 3.6%; in data set [1] (protein concentration 0.225 µM), 28.079 ± 0.0073%; in data set [2] (setting [7]), 5.6 ± 0.99%; in data set [2] (protein concentration 0.225 µM) it was 6.41 ± 0.73%.

Source of the values: the supplement of paper PMC11316812.
